Results taken from patent publication US20100167997A1, “METHOD FOR STIMULATION COLLAGEN SYNTHESIS AND/OR KGF EXPRESSION” (ATYR PHARMA, INC., priority 2005, published 2010).

How the values were obtained:
collagen [1] = assay: Collagen immunofluorescent staining of wound site in wild-type and AIMP1-deficient mice; type: in vivo, mouse; conditions: WT and AIMP1-/- mice; 4 μg applied on wound site twice a day until 3 days after wounding; FIG. 3
Source text: By the gene trap method known in the art (Zambrowicz, B. P., et al., Nature 392:608-611, 1998; Kim J Y et al., Proc. Natl. Acad. Sci. USA 99:7912-7916, 2002), a mutation in the AIMP1 gene of a male C57BL6 mouse was induced to prepare a AIMP1 gene deficient homozygous mouse (AIMP1^−/− mouse, Ho) (Park S. G. et al., Am. J. Pathol., in press: 2005). Then, on the back of each of the 8-week-old homozygous mouse and wild-type mouse (AIMP1^+/+ mice, WT), a circular cut-off window with a diameter of 0.5 cm was made with scissors. The wound site was left to stand without dressing. 4 μg of the AIMP1 prepared in Reference Example 1 was dissolved in 5 μl of 20% glycerol-containing PBS and applied on the wound site. The AIMP1 applied twice a day until 3 days after wounding. A control group (AIMP1-untreated group) was treated with 20% glycerol-containing PBS. Then, the tissue of the wound site was isolated using scissors and fixed in 4% paraformaldehyde overnight. The fixed tissue was washed with PBS, incubated in 30% sucrose solution for 4 hours, and then mixed with an OCT (optimal cutting temperature) compound and frozen at −70° C.
6 μm of the frozen section was attached to a silane-coated slide and washed with PBS. Then, the slide was blocked with PBS containing 0.1% tween 20 and 1% non-fat dry milk and allowed to react with an anti-collagen I antibody (Abcam) at 37° C. for 2 hours. […]

KGF = assay: RT-PCR analysis of KGF expression in foreskin fibroblast cells; type: cell-based; conditions: 100 nM for 2 hours, FIG. 4
Experimental: From foreskin fibroblast cells treated with 100 nM of the AIMP1 for 2 hours, the total RNA was extracted in the same manner as described in Example <1-2>. Then, the extract was amplified by RT-PCR using KGF-specific primers (SEQ ID NO: 8 and SEQ ID NO: 9). The control groups were amplified using cyclin D-specific primers (SEQ ID NO: 10 and SEQ ID NO: 11) and GADPH-specific primers (SEQ ID NO: 6 and SEQ ID NO: 7), respectively. The PCR reaction consisted of: predenaturation of the template DNA at 95° C. for 5 min, followed by 25 cycles of 1 min at 95° C., 1 min at 52° C. and 1 min at 72° C., and then, a final extension for 5 min at 72° C.
(§1) Foreskin fibroblast cells (5×10^4 cells/well) were cultured in 10% serum-containing DMEM medium on a 6-well plate about 12 hours, and then, cultured in serum-free medium for about 3 hours. Then, the cultured cells were treated with 100 nM of the N-terminal and C-terminal fragments of the AIMP1 prepared in Reference Example 1, at various time intervals of 0, 1, 2, 4, and 6 hours. Then, RT-PCR was performed in the same manner as in Example <1-2> using each of collagen-specific primers (SEQ ID NO: 4 and SEQ ID NO: 5), KGF-specific primers (SEQ ID NO: 8 and SEQ ID NO: 9) and GADPH-specific primers (SEQ ID NO: 6 and SEQ ID NO: 7).
(§2) Foreskin fibroblast cells (5×10^4 cells/well) were cultured in 10% serum-containing DMEM medium on a 6-well plate for 12 hours and then cultured in serum-free medium for about 3 hours. Next, the cultured cells were treated with each of the N-terminal fragments (SEQ ID NOS: 12, 13 and 14) and C-terminal fragment (SEQ ID NO: 15) of AIMP1 prepared in Reference Example 2 at an concentration of 100 nM for 2 hours and 6 hours, respectively. The treated cells were subjected to RT-PCR using collagen-specific primers (SEQ ID NOS: 4 and 5), KGF-specific primers (SEQ ID NOS: 8 and 9) and GADPH-specific primers (SEQ ID NOS: 6 and 7) in the same manner as in Example <1-2>.

collagen [2] = assay: RT-PCR analysis of collagen transcript in foreskin fibroblast cells; type: cell-based
Experimental: (§3) In order to measure the collagen transcript RNA induced by the AIMP1, foreskin fibroblast cells (5×10^4 cells/well; obtained from MTT; accession number: MC1232) were cultured in 10% serum-containing DMEM medium on a 6-well plate for 12 hours and then cultured in serum-free medium for about 3 hours. Next, the cultured cells were treated with the AIMP1 (SEQ ID NO: 1) at varying AIMP1 concentrations of 0, 20, 50, 100 and 200 nM for 6 hours (RT-PCR) or 12 hours (Western blot).
The cells treated with the AIMP1 at varying concentrations in Example <1-1> were collected and dissolved in TRIzol (invitrogen). 10% by weight of chloroform was added to the cell lysate, and mixed well. The mixture was centrifuged at 12,000 g for 15 minutes and the supernatant was collected. Ethanol was added to the collected supernatant to a final concentration of 70%. Then, the supernant was centrifuged at 26,000 g for 5 minutes and the precipitant was collected. The precipitant was dried and dissolved in sterilized distilled water, and the total RNA was extracted. 3 μg of the total RNA was used to prepare cDNA. Then, the cDNA was amplified by PCR using collagen-specific primers (SEQ ID NO: 4 and SEQ ID NO: 5). At this time, for use as a control group, the cDNA was subjected to PCR using GADPH-specific primers (SEQ ID NO: 6 and SEQ ID NO: 7). The PCR reaction consisted of: pre-denaturation of the template DNA at 95° C. for 5 min, followed by 25 cycles of 1 min at 95° C., 1 min at 52° C. and 1 min at 72° C., and then a final extension for 5 min at 72° C.
(§4) Foreskin fibroblast cells (5×10^4 cells/well) were cultured in 10% serum-containing DMEM medium on a 6-well plate for 12 hours, and then, cultured in serum-free medium for about 3 hours. Next, the cultured cells were treated with 100 nM of the AIMP1 at various time intervals (0, 2, 4, 6, 12 and 24 hours).
as §1, §2

collagen [3] = assay: Western blot analysis of collagen (anti-collagen I antibody) in foreskin fibroblast cells; type: cell-based
Experimental: as §3
The cells treated with the AIMP1 at varying AIMP1 concentrations in Example <1-1> were collected and lysed in a cell lysis buffer (50 mM HEPES, pH 7.5, 150 mM NaCl, 10% glycerol, 5 mM EGTA, 1 mM sodium orthovanadate, 10 mM NaF, 12 mM b-glycerophosphate, 1 mM DTT, 1 mM PMSF, […] aprotinin, and 1% NP40). Lysed cells were centrifuged at 26,000 g for 15 minutes and the cell extract was isolated. 30 μg of the cell extract was separated by 8% SDS-PAGE and immunoblotted with an anti-collagen I antibody (Abcam) according to any conventional method known in the art. As a control group, an anti-tubulin antibody (Sigma) was used.
as §4
Foreskin fibroblast cells (5×10^5 cells/well) were cultured in 10% serum-containing DMEM medium on a 6-well plate for 48 hours and then cultured in serum-free medium for about 3 hours. Next, the cultured cells were treated with each of the AIMP1 (SEQ ID NO: 1) and the AIMP1 N-terminal fragments (SEQ ID NOS: 2 and 12) at a concentration of 200 nM for 12 hours. As a control group, cells without treatment were used.
The cells treated with each of the AIMP1 and its N-terminal fragments and the control cells were collected at the indicated time and subjected to Western blot analysis in the same manner as in Example <1-3>.

B1: AIMP1: ARS-interacting multi-functional protein 1, a protein consisting of 312 amino acids (SEQ ID NO: 1) (protein, listed as Homo sapiens)
chain: MANNDAVLKRLEQKGAEADQIIEYLKQQVSLLKEKAILQATLREEKKLRVENAKLKKEIEELKQELIQAEIQNGVKQIAFPSGTPLHANSMVSENVIQSTAVTTVSSGTKEQIKGGTGDEKKAKEKIEKKGEKKEKKQQSIAGSADSKPIDVSRLDLRIGCIITARKHPDADSLYVEEVDVGEIAPRTVVSGLVNHVPLEQMQNRMVILLCNLKPAKMRGVLSQAMVMCASSPEKIEILAPPNGSVPGDRITFDAFPGEPDKELNPKKKIWEQIQPDLHTNDECVATYKGVPFEVKGKGVCRAQTMSNSGIK
Collagen [1]
  amount of collagen at wound site (immunofluorescence): further increased
KGF
  expression of KGF (RT-PCR): increased
Collagen [2]; 0, 20, 50, 100 and 200 nM for 6 hours, FIG. 1 upper
  synthesis of collagen (RT-PCR), varying concentrations: stimulated the synthesis of collagen in fibroblast cells in dose-dependent manners
Collagen [2]; 100 nM, 0, 2, 4, 6, 12 and 24 hours, FIG. 2 upper
  synthesis of collagen (RT-PCR), various time intervals: stimulated the synthesis of collagen in fibroblast cells in time-dependent manners
Collagen [3]; 0, 20, 50, 100 and 200 nM for 12 hours, FIG. 1 bottom
  synthesis of collagen, protein levels (Western blot), varying concentrations: stimulated the synthesis of collagen in fibroblast cells in dose-dependent manners
Collagen [3]; 100 nM, 0, 2, 4, 6, 12 and 24 hours, FIG. 2 bottom
  synthesis of collagen, protein levels (Western blot), various time intervals: stimulated the synthesis of collagen
Collagen [3]; 200 nM for 12 hours, FIG. 7
  synthesis of collagen, protein levels (Western blot), compared with cells without treatment: more stimulated
